Experimental data from patent US20220406376A1 (MacroGenics, published 2022).
Residue numbers refer to the chain shown, from its start.

B1: hCD137 MAB-3 (1B.4) (antibody, V domains shown)
VH: QVQLVQSGAEVKKPGASVKVSCKASGYTFTSYWINWVKQAPGQGLEWIGNIYPSDSYTNYNQKFKDKATITADKSTSTAYMELSSLRSEDTAVYYCTRDYGSAYSMSTWGQGTTVTVSS
VL: DIQMTQSPSSLSASVGDRVTITCQASQDISNYLNWYQQKPDKTVKLLIYYTSRLRSGVPSRFSGSGSGTDFTFTISSLQPEDIATYFCQQGDTLPYTFGQGTKLEIK
B2: hCD137 MAB-3 (1B.5) (antibody, V domains shown)
VH: B1 VH
VL: B1 VL with Q24R, A25P, V44A
B3: hCD137 MAB-3 (1B.6) (antibody, V domains shown)
VH: B1 VH
VL: B1 VL with Q24R, A25P, L54A
B4: hCD137 MAB-3 (1B.10) (antibody, V domains shown)
VH: B1 VH
VL: B1 VL with Q24R, A25P, S52T
B5: hCD137 MAB-3 (1B.11) (antibody, V domains shown)
VH: B1 VH
VL: B1 VL with Q24R, A25P, S52G
B6: hCD137 MAB-3 (1B.13) (antibody, V domains shown)
VH: B1 VH
VL: B1 VL with Q24R, A25P, I48A, S52G
B7: hCD137 MAB-3 (1E.3) (antibody, V domains shown)
VH: B1 VH with K38R
VL: B1 VL with Q24R, A25P
B8: hCD137 MAB-3 (1E.4) (antibody, V domains shown)
VH: B1 VH with K38R
VL: B1 VL
B9: hCD137 MAB-3 (1E.9) (antibody, V domains shown)
VH: B1 VH with K38R
VL: B1 VL with L54A
B10: hCD137 MAB-3 (1E.14) (antibody, V domains shown)
VH: B1 VH with K38R
VL: B1 VL with S52T, L54A
B11: hCD137 MAB-3 (1F.3) (antibody, V domains shown)
VH: B1 VH with I48A
VL: B1 VL with Q24R, A25P
B12: hCD137 MAB-3 (1G.4) (antibody, V domains shown)
VH: B1 VH with K38R, I48A
VL: B1 VL
B13: hCD137 MAB-3 (1G.7) (antibody, V domains shown)
VH: B1 VH with K38R, I48A
VL: B1 VL with V44A
B14: hCD137 MAB-3 (1G.8) (antibody, V domains shown)
VH: B1 VH with K38R, I48A
VL: B1 VL with V44A, L54A
B15: hCD137 MAB-3 (1G.14) (antibody, V domains shown)
VH: B1 VH with K38R, I48A
VL: B1 VL with S52T, L54A

What follows are binders tested against T1, extracellular portion of human CD137 fused to a histidine-containing peptide (human, UniProt Q07011 24-186) (assay: Attana Cell A200 QCM; antibody captured by anti-human IgG Fc; soluble human CD137-His; grade relative to (1B.3)).
T1 construct: extracellular domain; also called huCD137; His-tagged soluble human CD137

| Binder | binding result |
| --- | --- |
| B1 | binds |
| B2 | binds |
| B3 | binds |
| B4 | binds |
| B5 | binds |
| B6 | binds |
| B7 | binds |
| B8 | binds |
| B9 | binds |
| B10 | binds |
| B11 | binds |
| B12 | binds |
| B13 | binds |
| B14 | binds |
| B15 | binds |
